The test system of assay [1] is EGFR-Wt. The experiment in a line: MaMTH EGFR-interactor screen, lentiviral preys against EGFR-wildtype bait (interaction score). The settings on record: ratio of EGFR-Wt mean to EGFR-L858R mean interaction score. It counts as cell-based, human. An outline of the steps: (§1)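 Interaction score is the luciferase fold-change versus averaged negative controls (Fabp5, Pex19, Pex7, GABBR2), with >1 called interacting. Luciferase was measured 24 h after triplicate bait transfection. This followed single-copy prey transduction (MOI ~0.3-0.4) of GAL4UAS-luciferase HEK293T cells and ≥48 h puromycin selection.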

Assay [2] addresses T1, EGFR-Wt (Homo sapiens, UniProt P00533).
T1 construct: with the advantage of testing full-length integral membrane proteins; (GGGGS)2 linker-Cub (human ubiquitin aa 35-76)-GAL4(1-147)-mNFkB(364-550) (C); expressed in transfected cells
The assay is described as above. The settings on record: MaMTH interaction score of prey with EGFR-Wt bait, mean. It counts as cell-based. An outline of the steps: as §1

For a further assay, the target named is T2, EGFR-L858R (Homo sapiens, UniProt P00533, L858R).
T2 construct: with the advantage of testing full-length integral membrane proteins; (GGGGS)2 linker-Cub (human ubiquitin aa 35-76)-GAL4(1-147)-mNFkB(364-550) (C); expressed in transfected cells
The assay can be described thus: MaMTH EGFR-interactor screen, lentiviral preys against EGFR-L858R bait (interaction score). The settings on record: MaMTH interaction score of prey with EGFR-L858R bait. It counts as cell-based. In outline:
as §1

B1: ARHGEF7 (protein, UniProt Q14155 1-803, looked up)
Rho guanine nucleotide …: MNSAEQTVTWLITLGVLESPKKTISDPEGFLQASLKDGVVLCRLLERLLPGTIEKVYPEPRSESECLSNIREFLRGCGASLRLELLFPPSQPPQHLVTTILLSASTFDANDLYQGQNFNKVLSSLVTLNKVTADIGLGSDSVCARPSSHRIKSFDSLGSQSLHTRTSKLFQGQYRSLDMTDNSNNQLVVRAKFNFQQTNEDELSFSKGDVIHVTRVEEGGWWEGTLNGRTGWFPSNYVREVKASEKPVSPKSGTLKSPPKGFDTTAINKSYYNVVLQNILETENEYSKELQTVLSTYLRPLQTSEKLSSANISYLMGNLEEICSFQQMLVQSLEECTKLPEAQQRVGGCFLNLMPQMKTLYLTYCANHPSAVNVLTEHSEELGEFMETKGASSPGILVLTTGLSKPFMRLDKYPTLLKELERHMEDYHTDRQDIQKSMAAFKNLSAQCQEVRKRKELELQILTEAIRNWEGDDIKTLGNVTYMSQVLIQCAGSEEKNERYLLLFPNVLLMLSASPRMSGFIYQGKLPTTGMTITKLEDSENHRNAFEISGSMIERILVSCNNQQDLQEWVEHLQKQTKVTSVGNPTIKPHSVPSHTLPSHPVTPSSKHADSKPAPLTPAYHTLPHPSHHGTPHTTINWGPLEPPKTPKPWSLSCLRPAPPLRPSAALCYKEDLSKSPKTMKKLLPKRKPERKPSDEEFASRKSTAALEEDAQILKVIEAYCTSAKTRQTLNSTWQGTDLMHNHVLADDDQPSLDSLGRRSSLSRLEPSDLSEDSDYDSIWTAHSYRMGSTSRKSCCSYISHQN
In the case of B1, the Wt/L858R with EGFR-Wt [1] turned out to be 0.45. This molecule also had an EGFR-Wt mean with EGFR-Wt [2] of 1.24. Besides, in the assay with EGFR-L858R, the EGFR-L858R mean is 2.76.

B2: TNS3 (protein, UniProt Q68CZ2 1-1445, looked up)
Tensin-3: MEEGHGLDLTYITERIIAVSFPAGCSEESYLHNLQEVTRMLKSKHGDNYLVLNLSEKRYDLTKLNPKIMDVGWPELHAPPLDKMCTICKAQESWLNSNLQHVVVIHCRGGKGRIGVVISSYMHFTNVSASADQALDRFAMKKFYDDKVSALMQPSQKRYVQFLSGLLSGSVKMNASPLFLHFVILHGTPNFDTGGVCRPFLKLYQAMQPVYTSGIYNVGPENPSRICIVIEPAQLLKGDVMVKCYHKKYRSATRDVIFRLQFHTGAVQGYGLVFGKEDLDNASKDDRFPDYGKVELVFSATPEKIQGSEHLYNDHGVIVDYNTTDPLIRWDSYENLSADGEVLHTQGPVDGSLYAKVRKKSSSDPGIPGGPQAIPATNSPDHSDHTLSVSSDSGHSTASARTDKTEERLAPGTRRGLSAQEKAELDQLLSGFGLEDPGSSLKEMTDARSKYSGTRHVVPAQVHVNGDAALKDRETDILDDEMPHHDLHSVDSLGTLSSSEGPQSAHLGPFTCHKSSQNSLLSDGFGSNVGEDPQGTLVPDLGLGMDGPYERERTFGSREPKQPQPLLRKPSVSAQMQAYGQSSYSTQTWVRQQQMVVAHQYSFAPDGEARLVSRCPADNPGLVQAQPRVPLTPTRGTSSRVAVQRGVGSGPHPPDTQQPSPSKAFKPRFPGDQVVNGAGPELSTGPSPGSPTLDIDQSIEQLNRLILELDPTFEPIPTHMNALGSQANGSVSPDSVGGGLRASSRLPDTGEGPSRATGRQGSSAEQPLGGRLRKLSLGQYDNDAGGQLPFSKCAWGKAGVDYAPNLPPFPSPADVKETMTPGYPQDLDIIDGRILSSKESMCSTPAFPVSPETPYVKTALRHPPFSPPEPPLSSPASQHKGGREPRSCPETLTHAVGMSESPIGPKSTMLRADASSTPSFQQAFASSCTISSNGPGQRRESSSSAERQWVESSPKPMVSLLGSGRPTGSPLSAEFSGTRKDSPVLSCFPPSELQAPFHSHELSLAEPPDSLAPPSSQAFLGFGTAPVGSGLPPEEDLGALLANSHGASPTPSIPLTATGAADNGFLSHNFLTVAPGHSSHHSPGLQGQGVTLPGQPPLPEKKRASEGDRSLGSVSPSSSGFSSPHSGSTISIPFPNVLPDFSKASEAASPLPDSPGDKLVIVKFVQDTSKFWYKADISREQAIAMLKDKEPGSFIVRDSHSFRGAYGLAMKVATPPPSVLQLNKKAGDLANELVRHFLIECTPKGVRLKGCSNEPYFGSLTALVCQHSITPLALPCKLLIPERDPLEEIAESSPQTAANSAAELLKQGAACNVWYLNSVEMESLTGHQAIQKALSITLVQEPPPVSTVVHFKVSAQGITLTDNQRKLFFRRHYPVNSVIFCALDPQDRKWIKDGPSSKVFGFVARKQGSATDNVCHLFAEHDPEQPASAIVNFVSKVMIGSPKKV
With B2, the Wt/L858R in the assay on EGFR-Wt [1] worked out at 0.45. Further, the EGFR-Wt mean with EGFR-Wt [2] is 1.39. Further, the EGFR-L858R mean with EGFR-L858R stood at 3.12.

B3: HSPA4 (protein, UniProt P34932 1-840, looked up)
Heat shock 70 kDa protein 4: MSVVGIDLGFQSCYVAVARAGGIETIANEYSDRCTPACISFGPKNRSIGAAAKSQVISNAKNTVQGFKRFHGRAFSDPFVEAEKSNLAYDIVQLPTGLTGIKVTYMEEERNFTTEQVTAMLLSKLKETAESVLKKPVVDCVVSVPCFYTDAERRSVMDATQIAGLNCLRLMNETTAVALAYGIYKQDLPALEEKPRNVVFVDMGHSAYQVSVCAFNRGKLKVLATAFDTTLGGRKFDEVLVNHFCEEFGKKYKLDIKSKIRALLRLSQECEKLKKLMSANASDLPLSIECFMNDVDVSGTMNRGKFLEMCNDLLARVEPPLRSVLEQTKLKKEDIYAVEIVGGATRIPAVKEKISKFFGKELSTTLNADEAVTRGCALQCAILSPAFKVREFSITDVVPYPISLRWNSPAEEGSSDCEVFSKNHAAPFSKVLTFYRKEPFTLEAYYSSPQDLPYPDPAIAQFSVQKVTPQSDGSSSKVKVKVRVNVHGIFSVSSASLVEVHKSEENEEPMETDQNAKEEEKMQVDQEEPHVEEQQQQTPAENKAESEEMETSQAGSKDKKMDQPPQAKKAKVKTSTVDLPIENQLLWQIDREMLNLYIENEGKMIMQDKLEKERNDAKNAVEEYVYEMRDKLSGEYEKFVSEDDRNSFTLKLEDTENWLYEDGEDQPKQVYVDKLAELKNLGQPIKIRFQESEERPKLFEELGKQIQQYMKIISSFKNKEDQYDHLDAADMTKVEKSTNEAMEWMNNKLNLQNKQSLTMDPVVKSKEIEAKIKELTSTCSPIISKPKPKVEPPKEEQKNAEQNGPVDGQGDNPGPQAAEQGTDTAVPSDSDKKLPEMDID
As to B3, the Wt/L858R in the assay on EGFR-Wt [1] is listed as 0.46. This molecule also returned an EGFR-Wt mean in the assay with EGFR-Wt [2] of 1.13. This molecule also yielded an EGFR-L858R mean with EGFR-L858R of 2.48.

B4: LCP2 (protein, UniProt Q13094 1-533, looked up)
Lymphocyte cytosolic protein 2: MALRNVPFRSEVLGWDPDSLADYFKKLNYKDCEKAVKKYHIDGARFLNLTENDIQKFPKLRVPILSKLSQEINKNEERRSIFTRKPQVPRFPEETESHEEDNGGWSSFEEDDYESPNDDQDGEDDGDYESPNEEEEAPVEDDADYEPPPSNDEEALQNSILPAKPFPNSNSMYIDRPPSGKTPQQPPVPPQRPMAALPPPPAGRNHSPLPPPQTNHEEPSRSRNHKTAKLPAPSIDRSTKPPLDRSLAPFDREPFTLGKKPPFSDKPSIPAGRSLGEHLPKIQKPPLPPTTERHERSSPLPGKKPPVPKHGWGPDRRENDEDDVHQRPLPQPALLPMSSNTFPSRSTKPSPMNPLPSSHMPGAFSESNSSFPQSASLPPYFSQGPSNRPPIRAEGRNFPLPLPNKPRPPSPAEEENSLNEEWYVSYITRPEAEAALRKINQDGTFLVRDSSKKTTTNPYVLMVLYKDKVYNIQIRYQKESQVYLLGTGLRGKEDFLSVSDIIDYFRKMPLLLIDGKNRGSRYQCTLTHAAGYP
Consider B4, for which the Wt/L858R with EGFR-Wt [1] is recorded as 0.43. In the assay with EGFR-Wt [2], this molecule returned an EGFR-Wt mean of 2.71. For the same molecule, in the assay with EGFR-L858R, the EGFR-L858R mean came out at 6.29.

B5: GAB1 (protein, UniProt Q13480 2-694, looked up)
GRB2-associated-binding …: SGGEVVCSGWLRKSPPEKKLKRYAWKRRWFVLRSGRLTGDPDVLEYYKNDHAKKPIRIIDLNLCQQVDAGLTFNKKEFENSYIFDINTIDRIFYLVADSEEEMNKWVRCICDICGFNPTEEDPVKPPGSSLQAPADLPLAINTAPPSTQADSSSATLPPPYQLINVPPHLETLGIQEDPQDYLLLINCQSKKPEPTRTHADSAKSTSSETDCNDNVPSHKNPASSQSKHGMNGFFQQQMIYDSPPSRAPSASVDSSLYNLPRSYSHDVLPKVSPSSTEADGELYVFNTPSGTSSVETQMRHVSISYDIPPTPGNTYQIPRTFPEGTLGQTSKLDTIPDIPPPRPPKPHPAHDRSPVETCSIPRTASDTDSSYCIPTAGMSPSRSNTISTVDLNKLRKDASSQDCYDIPRAFPSDRSSSLEGFHNHFKVKNVLTVGSVSSEELDENYVPMNPNSPPRQHSSSFTEPIQEANYVPMTPGTFDFSSFGMQVPPPAHMGFRSSPKTPPRRPVPVADCEPPPVDRNLKPDRKVKPAPLEIKPLPEWEELQAPVRSPITRSFARDSSRFPMSPRPDSVHSTTSSSDSHDSEENYVPMNPNLSSEDPNLFGSNSLDGGSSPMIKPKGDKQVEYLDLDLDSGKSTPPRKQKSSGSGSSVADERVDYVVVDQQKTLALKSTREAWTDGRQSTESETPAKSVK
Regarding B5, in the assay on EGFR-Wt [1], the Wt/L858R stood at 0.41. The molecule also registered an EGFR-Wt mean with EGFR-Wt [2] of 0.93. The molecule further showed an EGFR-L858R mean with EGFR-L858R of 2.30.

B6: DOK1 (protein, UniProt Q99704 1-481, looked up)
Docking protein 1: MDGAVMEGPLFLQSQRFGTKRWRKTWAVLYPASPHGVARLEFFDHKGSSSGGGRGSSRRLDCKVIRLAECVSVAPVTVETPPEPGATAFRLDTAQRSHLLAADAPSSAAWVQTLCRNAFPKGSWTLAPTDNPPKLSALEMLENSLYSPTWEGSQFWVTVQRTEAAERCGLHGSYVLRVEAERLTLLTVGAQSQILEPLLSWPYTLLRRYGRDKVMFSFEAGRRCPSGPGTFTFQTAQGNDIFQAVETAIHRQKAQGKAGQGHDVLRADSHEGEVAEGKLPSPPGPQELLDSPPALYAEPLDSLRIAPCPSQDSLYSDPLDSTSAQAGEGVQRKKPLYWDLYEHAQQQLLKAKLTDPKEDPIYDEPEGLAPVPPQGLYDLPREPKDAWWCQARVKEEGYELPYNPATDDYAVPPPRSTKPLLAPKPQGPAFPEPGTATGSGIKSHNSALYSQVQKSGASGSWDCGLSRVGTDKTGVKSEGST
Turning to B6, in the assay on EGFR-Wt [1], the Wt/L858R is 0.39. In addition, in the assay with EGFR-Wt [2], the EGFR-Wt mean amounted to 5.17. The molecule further had an EGFR-L858R mean in the assay with EGFR-L858R of 13.10.

These data come from patent publication US9958461B2, “Detection of protein to protein interactions” (THE GOVERNING COUNCIL OF THE UNIVERSITY OF TORONTO, priority 2013, dated 2018).
